Measured values from paper PMC10611974.

Molecular target: APOBEC3B (A3B) C-terminal domain (ctd)-Cas9n-Ugi (human | S. pyogenes | not stated)

B1: Epstein-Barr virus ribonucleotide reductase large subunit, BORF2 (natural protein)
chain: MATTSHVEHELLSKLIDELKVKANSDPEADVLAGRLLHRLKAESVTHTVAEYLEVFSDKFYDEEFFQMHRDELETRVSAFAQSPAYERIVSSGYLSALRYYDTYLYVGRSGKQESVQHFYMRLAGFCASTTCLYAGLRAALQRARPEIESDMEVFDYYFEHLTSQTVCCSTPFMRFAGVENSTLASCILTTPDLSSEWDVTQALYRHLGRYLFQRAGVGVGVTGAGQDGKHISLLMRMINSHVEYHNYGCKRPVSVAAYMEPWHSQIFKFLETKLPENHERCPGIFTGLFVPELFFKLFRDTPWSDWYLFDPKDAGDLERLYGEEFEREYYRLVTAGKFCGRVSIKSLMFSIVNCAVKAGSPFILLKEACNAHFWRDLQGEAMNAANLCAEVLQPSRKSVATCNLANICLPRCLVNAPLAVRAQRADTQGDELLLALPRLSVTLPGEGAVGDGFSLARLRDATQCATFVVACSILQGSPTYDSRDMASMGLGVQGLADVFADLGWQYTDPPSRSLNKEIFEHMYFTALCTSSLIGLHTRKIFPGFKQSKYAGGWFHWHDWAGTDLSIPREIWSRLSERIVRDGLFNSQFIALMPTSGCAQVTGCSDAFYPFYANASTKVTNKEEALRPNRSFWRHVRLDDREALNLVGGRVSCLPEALRQRYLRFQTAFDYNQEDLIQMSRDRAPFVDQSQSHSLFLREEDAARASTLANLLVRSYELGLKTIMYYCRIEKAADLGVMECKASAALSVPREEQNERSPAEQMPPRPMEPAQVAGPVDIMSKGPGEGPGGWCVPGGLEVCYKYRQLFSEDDLLETDGFTERACESCQ
Question: For B1, which inhibition of A3Bctd CBE editing of the chromosomally integrated TC reporter (eGFP) in 293T cells, flow cytometry, 72 h post-transfection is on record?
Answer: 4.9 fold
